Where a chain is given by its changes, count along the chain named.
T1: Monkey CD96-3xFlag (cyno-CD96-3xFLAG) (cynomolgus monkey)
T1 construct: Signal peptide marked only by lost underlining; also called cynomolgus CD96
T1 chain: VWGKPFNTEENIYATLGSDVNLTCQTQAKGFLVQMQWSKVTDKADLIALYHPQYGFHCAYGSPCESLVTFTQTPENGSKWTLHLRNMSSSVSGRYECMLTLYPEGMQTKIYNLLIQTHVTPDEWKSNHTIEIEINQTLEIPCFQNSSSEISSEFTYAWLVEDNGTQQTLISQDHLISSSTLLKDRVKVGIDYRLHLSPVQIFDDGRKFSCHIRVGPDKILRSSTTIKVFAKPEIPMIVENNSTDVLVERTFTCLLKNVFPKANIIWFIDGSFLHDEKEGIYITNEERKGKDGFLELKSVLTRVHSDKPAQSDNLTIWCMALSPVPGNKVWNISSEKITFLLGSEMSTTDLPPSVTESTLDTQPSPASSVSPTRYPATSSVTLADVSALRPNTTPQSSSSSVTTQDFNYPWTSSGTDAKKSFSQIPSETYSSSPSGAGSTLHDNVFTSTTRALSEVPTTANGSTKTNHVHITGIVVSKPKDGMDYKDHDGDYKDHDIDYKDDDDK

T2: CD96 extracellular region with His tag (CD96-His) (human, UniProt P40200 22-519)
T2 construct: also called CD96-ECD-His; Bio-CD96-His (biotin-labelled form)
T2 sequence: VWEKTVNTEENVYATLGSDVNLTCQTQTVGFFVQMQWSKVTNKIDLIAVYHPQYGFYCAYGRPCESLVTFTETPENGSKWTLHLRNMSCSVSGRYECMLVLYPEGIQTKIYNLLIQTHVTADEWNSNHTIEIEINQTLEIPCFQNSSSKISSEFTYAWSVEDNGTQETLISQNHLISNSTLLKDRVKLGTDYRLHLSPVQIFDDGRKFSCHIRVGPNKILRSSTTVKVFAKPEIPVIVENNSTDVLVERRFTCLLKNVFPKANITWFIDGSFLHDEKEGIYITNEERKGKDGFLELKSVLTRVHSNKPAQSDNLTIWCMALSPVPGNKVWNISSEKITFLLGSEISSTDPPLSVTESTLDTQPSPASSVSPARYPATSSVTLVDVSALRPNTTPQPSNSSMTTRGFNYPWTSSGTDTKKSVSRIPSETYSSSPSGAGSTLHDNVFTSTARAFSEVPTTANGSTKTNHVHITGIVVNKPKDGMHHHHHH

B1: ch1720 (antibody, human IgG4 S228P, kappa, V domains shown)
VH: EFQLQQSGPELVKPGASVKISCKASAYSLTDYNMNWVKQSNGKSLEWIGVINPSYGISSYNQKFKGKATLTVDQSSSTAYMHLNSLTSEDSAVYYCARQLRLPGYFDVWGTGTTVTVSS
VL: DIKMTQSPSSKNASLGERVTITCKASQDINSYLNWFQQKPGKSPKTLIYRASRLVDGVPSRFSGSGSGQDYSLTISSLEYEDMGIYYCLKYDEFPYTFGGGTKLEIKR
notes: also called chimeric antibody corresponding to m1720
B2: ch1718 (antibody, human IgG4 S228P, kappa, V domains shown)
VH: B1 VH with L29I, S58T, S59D, K63N, G66D, H82Q, R98I, T116I
VL: B1 VL with K11M, N12Y, S31N, S52N, L104V
notes: also called chimeric antibody corresponding to m1718
B3: h1718-012 (antibody, V domains shown)
VH: EVQLVQSGAEVKKPGASVKVSCKASGYTITDYNMNWVRQAPGQRLEWIGVINPSYGITDYNQNFKDRVTITVDTSASTAYMELSSLRSEDTAVYYCAIQLRLPGYFDVWGQGTTVTVSS
VL: DIQMTQSPSSLSASVGDRVTITCKASQDINQYLNWFQQKPGKAPKTLIYRANRLVDGVPSRFSGSGSGQDYTLTISSLQPEDFATYYCLKYDEFPYTFGGGTKVEIK
notes: Only variable regions are tied to this name
B4: h1722-010 (antibody, V domains shown)
VH: EVQLVQSGAEVKKPGSSVKVSCKASGGTFSDYWMHWVRQAPGQGLEWIGMLHPNSGTTSFNEKFKIRVTITADKSTSTAYMELSSLRSEDTAVYYCASDYSGPFAYWGQGTLVTVSS
VL: DIQLTQSPSSLSASVGDRVTITCSASSSVNYIHWYQQKPGKAPKRWIFDTSKLASGVPSRFSGSGSGTDYTLTISSLQPEDFATYYCQQWRSNPLTFGQGTKLEIK
notes: Only variable regions are tied to this name; also called M722-010
B5: h1722-018 (antibody, V domains shown)
VH: B4 VH with N54Q
VL: B4 VL
B6: h1722-017 (antibody, V domains shown)
VH: B4 VH with N54K
VL: B4 VL
B7: h1721-003 (antibody, V domains shown)
VH: EVTLKESGPVLVKPTETLTLTCTVSGFSLSSYGVNWIRQPPGKALEWLGVIWGDGSTNYHSALISRLTISKDTSKSQVVLTLTNMDPVDTATYYCAKNYFYGSRYGYAMDSWGQGTTVTVSS
VL: DIQMTQSPSSLSASVGDRVTITCRASENIYSSLAWYQQKPGKAPKLLIYNAKTLIEGVPSRFSGSGSGTDFTLTISSLQPEDFATYYCQHHYGTPYTFGGGTKVEIK
notes: Only variable regions are tied to this name; also called M721-003
B8: h1719-014 (antibody, V domains shown)
VH: B7 VH with N35S, I37V, A44G, S56N, A62V, F100Y, A108P, M109L, S111Y
VL: DIQMTQSPSSVSASVGDRVTITCKATQDVGTAVAWYQQKPGKSPKLLIYWASTRHTGVPERFSGSGSGTDFTLTISSLQPEDFATYFCQQYGSSVLTFGGGTKVEIK
notes: Only variable regions are tied to this name; also called M719-014
B9: ch1722 (antibody, human IgG4 S228P, kappa, V domains shown)
VH: QVQLQQPGAELVKPGTSVKLSCKASGNTFIDYWMHWVKQRPGQGLEWIGMLHPNSGTTSFNEKFKIKTTLTIDKSSSTAYMQLSSLTSEDSAIYYCASDYSGPFAYWGQGTLVTVSA
VL: QIVLTQSPGIMSAFPGEKVTMTCSASSSVNYIHWYQQKSGTSPKRWIFDTSKLASGVPARFSGSGSGTSYSLTISSMEAEDAATYYCQQWRSNPLTFGAGTKLELKR
notes: also called chi722; chimeric antibody corresponding to m1722
B10: ch1719 (antibody, human IgG4 S228P, kappa, V domains shown)
VH: QVQLKESGPGLVAPSQSLSITCTVSGFSLISYGVSWVRQPPGKGLEWLGVIWGDGNTNYHSVLISRLSIRKDDSKSQVFLKLNSLQTDDTATYYCAKNNYYGSRYGYPMDYWGQGTSVTVSS
VL: DIVMTQSHKFMSTSVGDRVSITCKATQDVGTAVAWYQQKPGHSPKLLIYWASTRHTGVPERFTGSGSGTDFTLTIDNVQSEDLADYFCQQYGSSVLTFGAGTKVELRR
notes: also called chimeric antibody corresponding to m1719
B11: ch1721 (antibody, human IgG4 S228P, kappa, V domains shown)
VH: B10 VH with S35N, N56S, V62A, R70S, K81N, N99Y, Y100F, P108A, Y111S, T116I
VL: DIQMTQSPASLSAAVGETVTITCRASENIYSSLAWYQQKQGKSPQLLVYNAKTLIETVASRFSGSGSGTQYSLKINSLQPEDFGSFYCQHHYGTPYTFGGGTKLEIKR
notes: also called chimeric antibody corresponding to m1721
B12: h1722-006 (antibody, V domains shown)
VH: B4 VH
VL: B4 VL with L4M, F48Y, Y70F
notes: as for B3
B13: h1719-006 (antibody, V domains shown)
VH: B7 VH with N35S, I37V, A44G, S56N, A62V, Y99N, F100Y, A108P, S111Y
VL: B8 VL
notes: also called M719-006

Biological target: T1, Monkey CD96-3xFlag (cyno-CD96-3xFLAG)
Experiment: ELISA, cyno-CD96-3xFLAG coated
Protocol: The cross-reactive binding capacity of the anti-CD96 antibody to monkey CD96 was tested by ELISA to determine the binding of the antibody to cynomolgus CD96 protein. The 3×FLAG-tagged CD96 fusion protein was used to coat the microtiter plate, and the intensity of the signal after adding with the antibody was used for evaluating the binding activity of the antibody and cynomolgus CD96. The specific experimental method is as follows:
cyno-CD96-3×FLAG with the amino acid sequence of SEQ ID NO: 95 prepared in Embodiment 4 was diluted to a concentration of 2 μg/ml with PBS buffer (Shanghai Yuanpei Biotechnology Co., Ltd. Cat No. B320), pH 7.4, added to a 96-well microtiter plate (Corning, Cat No. CLS3590-100EA) at a volume of 50 μl/well, and placed in an incubator at 37° C. for 2 hours. After discarding the liquid, 250 μl/well of 5% skim milk (BD, 232100) blocking solution diluted with PBS was added, and the plate was incubated in an incubator at 37° C. for 2.5 hours or at 4° C. overnight (16-18 hours) for blocking. After blocking, the blocking solution was discarded, and the plate was washed 4 times with PBST buffer (pH 7.4 PBS containing 0.05% tween-20). 50 μl/well of different concentrations of the antibodies to be tested (hybridoma purification antibody or humanized antibody) diluted with sample dilution was added, and the plate was incubated in an incubator at 37° C. for 1 hour. […] After washing the plate 4 times with PBST, 50 μl/well of TMB chromogenic substrate (KPL, Cat No. 52-00-03) was added, and the plate was incubated at room temperature for 5-15 minutes, followed by adding 50 μl/well of 1M H₂SO₄ to stop the reaction. The absorption value was read at 450 nm with a NOVOStar microplate reader, and the EC50 value of the binding of CD96 antibody to monkey CD96 was calculated (see Table 14).

| EC50 [nM] | Binder |
| --- | --- |
| 0.096 | B1 |
| 0.068 | B2 |
| 0.075 | B3 |
| 0.047 | B4 |
| 0.051 | B5 |
| 0.047 | B6 |
| 0.037 | B7 |
| 0.065 | B8 |
| 0.05 | B9 |
| 0.047 | B10 |
| 0.046 | B11 |

Biological target: T2, CD96 extracellular region with His tag …
Experiment: blocking cell ELISA: antibody premixed with Bio-CD96-His (0.5 ug/mL), binding to fixed CD155-CHO cells
Protocol: CD155-CHO cells (constructed by Shanghai Hengrui) were seeded in 96-well culture plates at a density of 9×10⁴/100 μL/well and cultured overnight. After aspirating the supernatant, the plate was washed once with PBS, 100 μl/well of immunostaining fixation solution (Biyuntian, Cat No. P0098) was added and fixed for one hour at room temperature, and the plate was washed three times with PBS. After discarding the liquid, 250 μl/well of 5% skim milk (BD, Cat No. 232100) blocking solution diluted with PBS was added, and the plate was blocked in an incubator at 37° C. for 2.5 hours. After blocking, the blocking solution was discarded, subsequently, the plate was washed 4 times with PBST buffer (pH 7.4 PBS containing 0.05% tween-20). 50 μl/well of antigen-antibody pre-incubation solution (gradient concentrations of the hybridoma antibody to be tested and CD96-Fc at a final concentration of 0.5 μg/mL were premixed at 37° C. for 30 minutes, or gradient concentrations of humanized antibody samples and Bio-CD96-His at a final concentration of 0.5 μg/mL were premixed at 37° C. for 30 minutes) (Biotin-labeled kit, Dongren Chemical, Cat No. LK03) was added, and the plate was incubated in an incubator at 37° C. for 2 hours. After incubation, the reaction solution in the microtiter plate was discarded, the plate was washed 4 times with PBST, and 50 μl/well of HRP-labeled goat anti-human secondary antibody (Jackson Immuno Research, Cat No. 109-035-003) diluted with sample dilution or HRP-labeled streptavidin diluted with sample dilution (Sigma, Cat No. 52438) was added, followed by incubating at 37° C. for 1 hour. After washing the plate 4 times with PBST, 50 μl/well of TMB chromogenic substrate (KPL, Cat No. 52-00-03) was added, the plate was incubated at room temperature for 10-20 minutes, followed by adding 50 μl/well of 1M H₂SO₄ to stop the reaction. The absorption value was read at 450 nm with a NOVOStar microplate reader, and the EC50 value of the effect of CD96 antibody on blocking the binding between the antigens and CD155-CHO cells was calculated (see FIG. 2 and Table 16).

| IC50 [nM] | Binder |
| --- | --- |
| 0.133 | B3 |
| 0.207 | B4 |
| 0.134 | B5 |
| 0.398 | B12 |
| 0.135 | B6 |
| 0.155 | B7 |
| 0.046 | B8 |
| 0.064 | B13 |

Source: US20200347130A1 (JIANGSU HENGRUI MEDICINE, published 2020)
